{
  "source": "patent US20190389955A1",
  "about": "(HEMOGENYX PHARMACEUTICALS, published 2019)",
  "key": {"[1]": {"biological_target": "T1, human FLT3/FLK2 receptor protein (human, UniProt P36888 27-993)", "T1 construct": "whole, on cells; Cell-surface target in the flow cytometry experiments (REH cells and SP2/0-Hu-FLT3 cells); also called CD135; Hu-FLT3", "T1 sequence (looked up)": "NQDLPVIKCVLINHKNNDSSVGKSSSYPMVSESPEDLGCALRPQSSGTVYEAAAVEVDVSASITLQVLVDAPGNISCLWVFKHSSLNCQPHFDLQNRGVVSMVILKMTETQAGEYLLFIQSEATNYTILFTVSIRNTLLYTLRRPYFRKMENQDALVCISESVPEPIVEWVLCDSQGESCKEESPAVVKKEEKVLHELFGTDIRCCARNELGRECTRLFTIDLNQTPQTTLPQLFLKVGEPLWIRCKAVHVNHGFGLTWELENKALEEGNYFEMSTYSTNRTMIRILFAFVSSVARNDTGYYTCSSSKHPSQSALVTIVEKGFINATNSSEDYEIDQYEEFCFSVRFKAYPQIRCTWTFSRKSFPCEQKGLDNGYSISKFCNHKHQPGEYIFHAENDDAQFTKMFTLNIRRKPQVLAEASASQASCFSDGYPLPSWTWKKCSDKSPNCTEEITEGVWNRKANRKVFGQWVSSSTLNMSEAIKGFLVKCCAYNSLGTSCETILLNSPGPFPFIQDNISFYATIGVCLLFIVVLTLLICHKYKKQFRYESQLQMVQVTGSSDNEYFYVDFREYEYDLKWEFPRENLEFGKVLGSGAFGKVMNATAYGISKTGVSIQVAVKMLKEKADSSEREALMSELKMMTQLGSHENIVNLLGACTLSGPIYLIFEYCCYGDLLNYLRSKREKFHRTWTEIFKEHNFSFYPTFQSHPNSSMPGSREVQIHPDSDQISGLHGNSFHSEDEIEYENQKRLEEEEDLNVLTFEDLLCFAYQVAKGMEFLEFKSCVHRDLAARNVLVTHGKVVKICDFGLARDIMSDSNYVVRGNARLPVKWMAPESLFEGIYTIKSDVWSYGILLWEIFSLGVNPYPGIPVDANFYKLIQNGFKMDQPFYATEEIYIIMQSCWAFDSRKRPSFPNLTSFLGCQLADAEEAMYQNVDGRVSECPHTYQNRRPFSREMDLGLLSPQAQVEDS", "experiment": "flow cytometry titration on REH cells; axis printed 'mg/ml', the text gives ng/ml", "procedure": "(§1) Specificity of the monoclonal antibodies was determined by evaluating their affinity to the FLT3/FLK2 antigen. To define affinity of the anti-human FLT3/FLK2 antibodies, an Effective Concentration (EC) curve was built using flow cytometry. Nine monoclonal antibody clones were used to stain human REH cells that endogenously express human FLT3/FLK2. The concentration of the clones ranged from 1 ng/ml (6.25 pM) to 10,000 ng/ml (62.5 nM). […] The sequences of the clones are shown below."}, "[2]": {"biological_target": "T2, FLT3/FLK2 antigen (as used for Table 6) (human, UniProt P36888 27-541, limits assumed)", "T2 construct": "also called human FLT3/FLK2 receptor protein", "T2 sequence (looked up)": "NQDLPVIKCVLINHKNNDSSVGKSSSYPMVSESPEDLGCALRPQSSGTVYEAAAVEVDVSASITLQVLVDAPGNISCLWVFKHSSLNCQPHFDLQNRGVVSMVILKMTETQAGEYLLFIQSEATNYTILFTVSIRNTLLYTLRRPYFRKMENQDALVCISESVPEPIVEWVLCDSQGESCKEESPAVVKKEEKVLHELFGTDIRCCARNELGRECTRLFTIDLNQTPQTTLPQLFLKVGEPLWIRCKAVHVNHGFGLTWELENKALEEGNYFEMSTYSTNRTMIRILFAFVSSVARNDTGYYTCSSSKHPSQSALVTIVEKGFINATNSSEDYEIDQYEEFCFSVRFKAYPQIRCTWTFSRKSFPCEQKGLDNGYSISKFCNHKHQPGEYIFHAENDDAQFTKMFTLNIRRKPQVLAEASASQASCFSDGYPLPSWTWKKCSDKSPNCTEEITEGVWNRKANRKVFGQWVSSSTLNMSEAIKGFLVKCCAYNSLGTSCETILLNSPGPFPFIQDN", "experiment": "kinetic fit, method not stated (Table 6)"}, "[3]": {"biological_target": "T1, human FLT3/FLK2 receptor protein", "experiment": "flow cytometry titration on REH cells, MFI against antibody concentration; the box prints no unit, the axis is printed 'mg/ml', the text gives ng/ml", "procedure": "as §1"}, "[4]": {"biological_target": "T1, human FLT3/FLK2 receptor protein", "experiment": "flow cytometry, hybridoma supernatant on REH cells; same table: unstained 1292, secondary Ab alone 6905 (0.78%), isotype 13307 (12%)"}, "[5]": {"biological_target": "T1, human FLT3/FLK2 receptor protein", "experiment": "flow cytometry, purified antibody on SP2/0 cells expressing human FLT3/FLK2; same table: unstained 6063, secondary Ab 9522, isotype 11518"}, "[6]": {"biological_target": "T1, human FLT3/FLK2 receptor protein", "experiment": "flow cytometry titration on REH cells, MFI against antibody concentration; the box prints no unit, the axis is printed 'mg/ml', the text gives ng/ml; clone taken from the legend paragraph 65 (FIG. 5E: Ab1-18New)", "procedure": "as §1"}},
  "data": [
    {"binder": "MHC1696-2-8IA (antibody, V domains shown, Mouse hybridoma monoclonal antibody; also called A281A) VH: EIQLQQSGPELVKPGASVKVSCKASGYSFIDYNMYWVKQSHGKSLEWIGYINPYNGGTSNNQKFKDKATLTVDKSSSTAFMHLNSLTSEDSAVYYCARGTTGDYWGQGTTLTVSS VL: DTVLTQSPATLSVTPGDSVSLSCRASQSISNNLHWYQQKSHESPRLLIKYGFQSISGIPSRFSGSGSGTDFTLRINSVETEDFGMYFCQQTNSWPLTFGAGTKLELK", "values": [
      {"measurement": "EC50 (read off the curve)", "setting": "[1]", "result": "~0.1", "unit": "µg/mL"},
      {"measurement": "Kd", "setting": "[2]", "result": 0.0503, "unit": "nM"},
      {"measurement": "koff", "setting": "[2]", "result": 0.000111, "unit": "s⁻¹"},
      {"measurement": "kon", "setting": "[2]", "result": "2.21e+06", "unit": "M⁻¹ s⁻¹"},
      {"measurement": "EC50", "setting": "[3]", "result": 0.0902, "unit": "µg/mL"},
      {"measurement": "% POSITIVE CELLS", "setting": "[4]", "result": 30, "unit": "%"},
      {"measurement": "MFI (IgC FITC)", "setting": "[4]", "result": 11000},
      {"measurement": "MFI", "setting": "[5]", "result": 128000}
    ]},
    {"binder": "MHC1693-3-16HA (antibody, V domains shown, Mouse hybridoma monoclonal antibody; also called Ab3-16HA) VH: EVQLQQSGAELVRPGALVKLSCKGSGFNIKDYYIHWVKQRPEQGLEWIGRIDPENDITMYDPKFQGKASITADTSSNTAYLQLSSLTSEDTAVYYCARNGNFFAYWGQGTLVTVSA VL: not shown", "values": [
      {"measurement": "% POSITIVE CELLS", "setting": "[4]", "result": 57, "unit": "%"},
      {"measurement": "MFI (IgC FITC)", "setting": "[4]", "result": 15200},
      {"measurement": "MFI", "setting": "[5]", "result": 206000}
    ]},
    {"binder": "MHC1695-3-30A (antibody, V domains shown, Mouse hybridoma monoclonal antibody) VH: QVTLKESGPGILQPSQTLSLTCSFSGFSLSTSHMGVGWIRQPSGKGLEWLLHILWNDSVYYNPALKSRLTISKDTYNKQVFLKIANVDTADTATYYCARIVYYGISYVGYFDVWGAGTTVTVSS VL: DIQMTQSPSSLSASLGERVSLTCRASQEISGYLSWLQQKPDGTIKRLIYAASTLNSGVPRRFSGSRSGSDYSLTISSLESEDFADYYCLQYASYPFTFGSGTKLEIK", "values": [
      {"measurement": "EC50 (read off the curve)", "setting": "[1]", "result": "~1", "unit": "µg/mL"},
      {"measurement": "% POSITIVE CELLS", "setting": "[4]", "result": 48, "unit": "%"},
      {"measurement": "MFI (IgC FITC)", "setting": "[4]", "result": 13000},
      {"measurement": "MFI", "setting": "[5]", "result": 151000}
    ]},
    {"binder": "MHC1692-1-23DA (antibody, V domains shown, Mouse hybridoma monoclonal antibody (detected with anti-mouse IgG); also called Ab1-23DA) VH: QVTLKESGPGILQPSQTLSLTCSFSGFSLSTSTMGVGWIRQPSGKGLEWLLHILWNDSKYYNPALKSRLTISKDTYNKQVFLKIANVDTADTATYYCARIVYYSTYVGYFDVWGAGTTVTVSS VL: DIQMTQSPSSLSASLGERVSLTCRASQEISGYLSWLQQKPDGTIKRLIYAASTLHSGVPKRFSGSRSGSDYSLTISRLESEDVADYYCLQYASYPFTFGSGTKLEIR", "values": [
      {"measurement": "EC50 (read off the curve)", "setting": "[1]", "result": "~0.06", "unit": "µg/mL"},
      {"measurement": "EC50", "setting": "[3]", "result": 0.0701, "unit": "µg/mL"},
      {"measurement": "% POSITIVE CELLS", "setting": "[4]", "result": 49, "unit": "%"},
      {"measurement": "MFI (IgC FITC)", "setting": "[4]", "result": 13300},
      {"measurement": "MFI", "setting": "[5]", "result": 119000}
    ]},
    {"binder": "MHC1694-1-18BA (antibody, V domains shown, Mouse hybridoma monoclonal antibody; also called Ab1-18New) VH: QVTLKESGPGILQPSQTLSLTCSFSGFSLSTSTMGVGWIRQPSGKGLEWLLHILWNDSKYYNPALKSRLTISKDTYNKQVFLKIANVDTADTATYYCARIVYYSTYVGYFDVWGAGTTVTVSS VL: DIQMTQSPSSLSASLGERVSLTCRASQEISGYLSWLQQKPDGTIKRLIYAASTLHSGVPKRFSGSRSGSDYSLTISRLESEDVADYYCLQYASYPFTFGSGTKLEIR", "values": [
      {"measurement": "EC50 (read off the curve)", "setting": "[1]", "result": "~0.08", "unit": "µg/mL"},
      {"measurement": "Kd", "setting": "[2]", "result": 0.00576, "unit": "nM"},
      {"measurement": "koff", "setting": "[2]", "result": "1.42e-05", "unit": "s⁻¹"},
      {"measurement": "kon", "setting": "[2]", "result": "2.46e+06", "unit": "M⁻¹ s⁻¹"},
      {"measurement": "EC50", "setting": "[6]", "result": 0.0788, "unit": "µg/mL"},
      {"measurement": "% POSITIVE CELLS", "setting": "[4]", "result": 58, "unit": "%"},
      {"measurement": "MFI (IgC FITC)", "setting": "[4]", "result": 14700}
    ]}
  ]
}
